In patent publication US20220204643A1 (published 2022):

Experiments:
[1] = biological target: T1, zinc finger DHHC-type containing 1, transcript variant 1 (human, UniProt Q8WTX9 1-485); test: protein array
T1 construct: on protein array; also called ZDHHC1
T1 sequence: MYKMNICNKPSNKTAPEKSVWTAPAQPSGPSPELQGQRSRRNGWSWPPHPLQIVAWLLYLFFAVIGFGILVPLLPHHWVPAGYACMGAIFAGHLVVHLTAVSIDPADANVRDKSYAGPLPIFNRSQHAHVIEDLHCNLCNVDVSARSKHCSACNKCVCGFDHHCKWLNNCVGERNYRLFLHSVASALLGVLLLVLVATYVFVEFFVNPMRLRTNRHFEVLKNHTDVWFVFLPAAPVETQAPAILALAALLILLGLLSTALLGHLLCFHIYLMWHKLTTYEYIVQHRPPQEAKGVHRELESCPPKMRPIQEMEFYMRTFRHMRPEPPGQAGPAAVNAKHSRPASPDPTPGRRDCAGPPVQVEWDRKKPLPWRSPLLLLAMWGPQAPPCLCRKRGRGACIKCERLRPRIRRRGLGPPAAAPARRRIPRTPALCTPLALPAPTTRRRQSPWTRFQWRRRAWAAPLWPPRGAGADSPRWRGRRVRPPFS

[2] = biological target: T2, transforming growth factor beta induced (human, UniProt Q15582 24-683); test: protein array
T2 construct: on protein array; also called TGFBI
T2 sequence: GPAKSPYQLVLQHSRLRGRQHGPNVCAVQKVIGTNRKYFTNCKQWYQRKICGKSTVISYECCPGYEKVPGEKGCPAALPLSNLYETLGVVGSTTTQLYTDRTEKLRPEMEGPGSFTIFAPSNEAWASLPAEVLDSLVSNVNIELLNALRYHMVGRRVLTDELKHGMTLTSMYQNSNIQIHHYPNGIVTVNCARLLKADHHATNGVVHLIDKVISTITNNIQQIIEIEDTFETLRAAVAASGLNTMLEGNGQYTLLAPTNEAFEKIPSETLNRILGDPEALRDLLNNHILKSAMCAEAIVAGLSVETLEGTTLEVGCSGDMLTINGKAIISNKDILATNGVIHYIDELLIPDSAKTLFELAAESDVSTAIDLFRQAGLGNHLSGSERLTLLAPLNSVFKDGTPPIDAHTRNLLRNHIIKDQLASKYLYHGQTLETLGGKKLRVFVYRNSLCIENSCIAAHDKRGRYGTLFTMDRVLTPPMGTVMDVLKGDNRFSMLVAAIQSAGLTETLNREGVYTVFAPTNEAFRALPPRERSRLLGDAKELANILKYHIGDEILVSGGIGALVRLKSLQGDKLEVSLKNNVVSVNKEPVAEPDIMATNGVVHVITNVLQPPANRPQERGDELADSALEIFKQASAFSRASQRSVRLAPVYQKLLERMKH

[3] = biological target: T3, cyclin dependent kinase 2 associated protein 2, transcript variant 1 (human, UniProt O75956 1-126); test: protein array
T3 construct: on protein array; also called CDK2AP2
T3 sequence: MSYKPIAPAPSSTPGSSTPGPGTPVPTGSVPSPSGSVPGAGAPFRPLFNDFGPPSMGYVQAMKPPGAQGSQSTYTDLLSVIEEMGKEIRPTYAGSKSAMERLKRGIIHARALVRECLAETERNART

[4] = biological target: T4, NFKB inhibitor beta, transcript variant 1 (human, UniProt Q15653 1-356); test: protein array
T4 construct: on protein array; also called NFKBIB
T4 sequence: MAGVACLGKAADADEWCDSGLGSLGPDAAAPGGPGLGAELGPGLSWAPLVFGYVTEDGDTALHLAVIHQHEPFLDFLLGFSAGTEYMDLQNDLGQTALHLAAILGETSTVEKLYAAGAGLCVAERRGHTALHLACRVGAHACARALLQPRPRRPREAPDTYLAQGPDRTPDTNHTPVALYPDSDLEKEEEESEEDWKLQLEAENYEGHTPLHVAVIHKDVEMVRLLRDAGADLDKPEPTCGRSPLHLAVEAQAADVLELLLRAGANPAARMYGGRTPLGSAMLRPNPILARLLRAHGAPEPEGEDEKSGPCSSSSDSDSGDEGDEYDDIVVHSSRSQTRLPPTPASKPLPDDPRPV

[5] = biological target: T5, phosphoglucomutase 2 like 1 (human, UniProt Q6PCE3 1-622 at identity 1.00)); test: protein array
T5 construct: on protein array; also called PGM2L1
T5 sequence: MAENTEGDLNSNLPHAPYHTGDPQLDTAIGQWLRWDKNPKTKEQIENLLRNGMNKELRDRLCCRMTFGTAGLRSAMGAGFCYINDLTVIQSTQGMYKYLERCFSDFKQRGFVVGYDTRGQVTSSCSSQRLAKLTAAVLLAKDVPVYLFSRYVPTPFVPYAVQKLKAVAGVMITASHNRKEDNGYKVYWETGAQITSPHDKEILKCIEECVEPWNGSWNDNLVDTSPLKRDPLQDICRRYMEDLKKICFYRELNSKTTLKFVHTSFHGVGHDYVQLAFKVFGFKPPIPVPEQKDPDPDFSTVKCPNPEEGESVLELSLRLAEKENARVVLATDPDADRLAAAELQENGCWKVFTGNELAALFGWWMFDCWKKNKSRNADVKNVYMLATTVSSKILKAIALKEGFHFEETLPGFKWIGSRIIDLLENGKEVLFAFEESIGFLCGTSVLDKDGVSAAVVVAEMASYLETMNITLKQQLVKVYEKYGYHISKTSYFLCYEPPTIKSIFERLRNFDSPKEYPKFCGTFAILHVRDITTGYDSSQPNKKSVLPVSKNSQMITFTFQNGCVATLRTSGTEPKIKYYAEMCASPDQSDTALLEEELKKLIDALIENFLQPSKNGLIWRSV

programmed cell death 1 = biological target: T6, programmed cell death 1 (human, UniProt Q15116 25-288); test: protein array, with experimental replicate
T6 construct: on protein array; also called PDCD1

[6] = biological target: T7, Transforming growth factor beta 3 (human, UniProt P10600 24-412); test: protein array
T7 construct: on protein array; also called TGFB3
T7 sequence: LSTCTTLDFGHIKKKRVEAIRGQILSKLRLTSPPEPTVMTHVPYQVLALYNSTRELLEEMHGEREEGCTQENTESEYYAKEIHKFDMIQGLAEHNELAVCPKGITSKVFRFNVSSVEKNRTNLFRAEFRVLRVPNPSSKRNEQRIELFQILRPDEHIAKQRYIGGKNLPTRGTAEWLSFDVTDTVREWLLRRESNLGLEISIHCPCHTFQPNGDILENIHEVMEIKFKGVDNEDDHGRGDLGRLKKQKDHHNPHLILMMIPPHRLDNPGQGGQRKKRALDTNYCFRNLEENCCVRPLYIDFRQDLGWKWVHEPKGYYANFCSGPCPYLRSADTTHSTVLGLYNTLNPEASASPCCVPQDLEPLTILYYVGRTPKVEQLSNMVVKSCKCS

chymotrypsinogen B2 = biological target: T8, chymotrypsinogen B2 (human, UniProt Q6GPI1 19-263); test: protein array
T8 construct: on protein array; also called CTRB2

[7] = biological target: T9, zinc finger with KRAB and SCAN domains 4, transcript variant X1 (human, UniProt Q969J2 1-545); test: protein array
T9 construct: on protein array; also called ZKSCAN4
T9 sequence: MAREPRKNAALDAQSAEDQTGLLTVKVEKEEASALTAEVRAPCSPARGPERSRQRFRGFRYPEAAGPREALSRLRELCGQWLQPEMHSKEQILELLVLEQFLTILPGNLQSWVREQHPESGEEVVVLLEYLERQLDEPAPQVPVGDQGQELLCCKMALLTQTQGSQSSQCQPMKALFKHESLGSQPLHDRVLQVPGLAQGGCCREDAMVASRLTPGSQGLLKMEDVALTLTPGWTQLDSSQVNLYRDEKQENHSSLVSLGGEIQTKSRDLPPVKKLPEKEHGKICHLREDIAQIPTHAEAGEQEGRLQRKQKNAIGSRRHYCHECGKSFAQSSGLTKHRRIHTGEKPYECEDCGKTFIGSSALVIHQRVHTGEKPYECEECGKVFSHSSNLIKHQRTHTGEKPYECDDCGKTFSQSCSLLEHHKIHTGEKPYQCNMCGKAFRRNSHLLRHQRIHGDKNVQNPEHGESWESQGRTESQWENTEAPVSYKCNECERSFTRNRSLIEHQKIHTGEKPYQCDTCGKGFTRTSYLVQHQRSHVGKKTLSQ

[8] = biological target: T10, BCL2 apoptosis regulator, transcript variant alpha (human, UniProt P10415 1-239); test: protein array
T10 construct: on protein array
T10 sequence (P10415 whole entry, change not shown): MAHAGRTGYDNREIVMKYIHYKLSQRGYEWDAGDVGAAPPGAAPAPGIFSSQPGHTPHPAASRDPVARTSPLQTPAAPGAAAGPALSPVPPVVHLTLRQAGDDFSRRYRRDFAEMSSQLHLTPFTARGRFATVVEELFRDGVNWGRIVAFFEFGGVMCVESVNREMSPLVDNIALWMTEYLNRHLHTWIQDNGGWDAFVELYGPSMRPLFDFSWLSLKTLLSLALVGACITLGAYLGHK

T6 sequence (Q15116 25-288 limits assumed): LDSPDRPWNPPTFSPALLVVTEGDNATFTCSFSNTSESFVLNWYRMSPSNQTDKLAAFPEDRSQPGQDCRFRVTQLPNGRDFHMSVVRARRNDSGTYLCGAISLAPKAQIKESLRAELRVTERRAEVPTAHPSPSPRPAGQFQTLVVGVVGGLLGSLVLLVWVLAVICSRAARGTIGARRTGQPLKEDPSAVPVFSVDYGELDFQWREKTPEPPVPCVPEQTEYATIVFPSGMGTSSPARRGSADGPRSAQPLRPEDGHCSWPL
T8 sequence (Q6GPI1 19-263 limits assumed): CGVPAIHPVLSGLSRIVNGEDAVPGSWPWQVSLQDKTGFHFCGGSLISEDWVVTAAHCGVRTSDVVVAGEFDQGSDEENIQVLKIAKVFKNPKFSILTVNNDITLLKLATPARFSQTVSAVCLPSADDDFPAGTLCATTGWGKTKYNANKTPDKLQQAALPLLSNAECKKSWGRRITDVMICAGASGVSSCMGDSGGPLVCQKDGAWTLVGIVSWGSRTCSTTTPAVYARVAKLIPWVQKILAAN

B1: TBLA1003 (antibody, V domains shown)
VH: EVQLVESGGGLIQPGRSLRLSCAASGFTFEDYAMHWVRQAPGKGLEWVSGISWNSGNIGYADSVKGRFTISRDNAKNSLYLQMHSLRPEDTALYYCAKDINFFGLGTGGGAMDVWGQGTTVTVSS
VL: DIQMTQSPSYVSASVGDRVTITCRASQGIDVWLAWYQQKPGKAPKLLIYTASSLQSGVPSRFSGSGGGTEFTLTISSLQPEDFATYYCQQSNSFPGTFGPGTKVDVKR
notes: VH/VL only
B1: binds [1].

B2: TSTO1008 (antibody, V domains shown)
VH: AVQLVQSGAEVKKPGESLRISCKGSGYSFSTYWIIWVRQMPGKGLEWIGRFDPSDSYNVNSPSFQGHVTISADTSINTAYLQWSSLKASDSAMYYCARRSDKAVPGTFDQWGQGTLVTVSS
VL: RSVLTQPPSVSAAPGQKVIISCSGSSSNIGNNYVSWYQQFLGTAPKLLIYDTDKRPSGIPDRFSGSKSGTSATLGITGLQTGDEAHYYCATWDSSLRAGPVVFGGGTKLTVLG
notes: VH/VL tied via antigen in summary, not by name in this stretch
B2: binds [2].

B3: TSTO1005 (antibody, V domains shown)
VH: EVQLVESGGGVVQPGGSLRLSCAASGFTFEDFGMHWVRQAPGKGLEWVAFTRFDGSEKYYVDSVKGRFTVSRDNSKNTLFLHMNSLRPEDTAVYYCAKTRSYSSADTTRPNAPGYWGQGTLVTVSS
VL: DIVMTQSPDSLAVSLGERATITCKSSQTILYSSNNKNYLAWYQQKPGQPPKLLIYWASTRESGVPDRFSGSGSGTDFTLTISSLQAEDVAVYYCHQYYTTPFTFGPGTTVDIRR
notes: as for B2
B3: binds [3]; binds [4].

B4: TTES1002 (antibody, V domains shown)
VH: QVQLQESGPGLVKPSETLSLICTVSGASVNSGTHFWSWIRQPPGKGLEWIGYVYYSGNTNYNPSLKSRVAISVDTSKNQFSLKLTSVTSADTAVYYCARDFDDGYDIRYWGQGTRVSVSS
VL: QSALTQPASVSGSPGQSITISCTGSSNDIGRYKYVSWFQHHPGRAPKLIIYEVNNRPSGLSHRFSGSKSGNTASLTISGLQAEDEADYYCCSYTSSLTYVFGTGTAVTVL
notes: as for B2
B4: binds [5].

B5: TTES1003 (antibody, V domains shown)
VH: VVQLVESGGGLVQPGGSLRLSCSASGFTFSSYAMHWVRQAPGKGLEYVSAISSNGGSTYYADSVKGRFTISRDNSKNTLYLQMSSLRAEDTAVYYCVKSPVAANDAFDIWGQGTMVTVSS
VL: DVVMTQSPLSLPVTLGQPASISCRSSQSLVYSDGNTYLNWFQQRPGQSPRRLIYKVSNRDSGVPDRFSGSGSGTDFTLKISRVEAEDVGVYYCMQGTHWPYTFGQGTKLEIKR
notes: as for B2
B5: binds (programmed cell death 1).

B6: TSTO1003 (antibody, V domains shown)
VH: QVQLKQSGGGVVQPGRSLTLSCVASGLTFSDYGMHWVRQAPGKGLEWVAVIWHDGSKTNYADSVKGRIIISRDNSKSTVYLQMNRLRGEDTAVYYCATSHGGLVPGGENYWGQGTLVTVSS
VL: SDELTQPPSVSVSPGQTARITCSGDALAKEYAYWYQQKSGQAPVLVISKDTERPSGIPARFSGSSSGTTVTLTISGVQSDDEADYYCQSADSSLTYWLFGGGTKLTVLR
notes: as for B2
B6: binds [6].

B7: TSTO1004 (antibody, V domains shown)
VH: QVQLVQSGSELKKPGASVKVSCTSSGYVFTSFGVSWVRQVPGQGPEWMGWISPYTRQTKYAQSLQGRITLTADTSTNTTYMELRSLRSDDTAMYYCVREEFGVVRGPNPFDVWGQGTMVTVSS
VL: DIQMTQAPSTLSASVGDRVSITCRASQNIRDFLAWYQQKPGRAPDLLIYRASTLEKGVSARFSGSGSGTEFTLTITGLQPDDFATYYCQQYSDYSTFGGGTRVEIK
notes: as for B2
B7: binds (chymotrypsinogen B2).

B8: TBRE1009 (antibody, V domains shown)
VH: EVQLVESGGGLVKPGGSLRLSCVGSGFTFSNYSMNWVRQAPGRGLEWVSSISWGSSYINYADSVKGRFTISRDNAKNSLYLQMTSLTAEDTAVYYCACRRIYQGFDPWGQGTLVT
VL: DIQMTQSPSSLSASVGDRVTISCRASHNINTYLNWYQHKPGKAPKIVIYGASSLQSGVPSRFSGSGSGTDFSLTISSLQREDFATYFCQQSFNTVLTFGGGTRVDI
notes: VH/VL only
B8: binds [7].

B9: TSTO1010 (antibody, V domains shown)
VH: EVQLVESGGGLVKPRGSLRLSCAASGFTFSAYGMNWVRQAPGKGLEWVSSISGDSRDIYYGASMKGRFTISRDNAKSSLYLQMNSLRAEDTAVYYCARGEGGELWAFDYWGLGVLVTVSS
VL: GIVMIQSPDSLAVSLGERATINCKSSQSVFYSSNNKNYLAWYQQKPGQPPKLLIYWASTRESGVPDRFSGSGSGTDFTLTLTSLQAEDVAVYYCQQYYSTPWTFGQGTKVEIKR
notes: as for B2
B9: binds [8].
